# Test results as given in patent US20220372155A1 (LYVGEN BIOPHARMA, published 2022).
# Molecular target: T1, human CD40 expressed on CHO cells (human, UniProt P25942 21-277)
# T1 construct: whole, on cells; also used for the reporter cells over-expressing human CD40; also called cellular CD40; CHO-CD40 cells
# Experiment: FACS, CHO cells
# T1 sequence (P25942 21-277): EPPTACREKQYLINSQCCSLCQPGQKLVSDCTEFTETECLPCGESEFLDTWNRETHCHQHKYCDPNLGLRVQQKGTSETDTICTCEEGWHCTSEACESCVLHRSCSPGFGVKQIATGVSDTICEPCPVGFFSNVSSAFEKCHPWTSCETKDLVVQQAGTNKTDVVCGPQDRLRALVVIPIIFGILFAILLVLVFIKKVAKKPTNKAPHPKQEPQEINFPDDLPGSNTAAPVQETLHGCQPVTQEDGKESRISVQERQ
row,Binder,binding result
1,"Ly813 (bispecific antibody, human IgG1, kappa, Ly387 HC (IgG1 mutated Fc)-Ly253 scFv VL-VH + Ly387 LC) heavy: not shown light: ENVLTQSPAIMSVSPGEKVTMTCRASSSVSSSYLHWYQQKSGASPKFWIYSTSNLASGVPARFSGSGSGTSYSLTISSVEAEDAATYYCQHYSGYPLTFGAGTKLELRRTVAAPSVFIFPPSDEQLKSGTASVVCLLNNFYPREAKVQWKVDNALQSGNSQESVTEQDSKDSTYSLSSTLTLSKADYEKHKVYACEVTHQGLSSPVTKSFNRGEC",binds
2,"Ly814 (bispecific antibody, human IgG1, kappa, Ly387 HC-Ly253 scFv VH-VL + Ly387 LC) heavy: not shown light: ENVLTQSPAIMSVSPGEKVTMTCRASSSVSSSYLHWYQQKSGASPKFWIYSTSNLASGVPARFSGSGSGTSYSLTISSVEAEDAATYYCQHYSGYPLTFGAGTKLELRRTVAAPSVFIFPPSDEQLKSGTASVVCLLNNFYPREAKVQWKVDNALQSGNSQESVTEQDSKDSTYSLSSTLTLSKADYEKHKVYACEVTHQGLSSPVTKSFNRGEC",binds
3,"Ly815 (bispecific antibody, human IgG1, kappa, Ly387 HC (IgG1 mutated Fc) + Ly387 LC-Ly253 scFv VL-VH) heavy: QVQLQQPGAELVKPGASVKLSCKASGYTFTSYWMHWVKQRPGQGLEWIGMIHPNSGGTNYNEKFKGKGTLTVDKSSSTAYMQLSSLTSDDSAVYYCVTSQATWFAYWGQGTLVTVSAASTKGPSVFPLAPSSKSTSGGTAALGCLVKDYFPEPVTVSWNSGALTSGVHTFPAVLQSSGLYSLSSVVTVPSSSLGTQTYICNVNHKPSNTKVDKKVEPKSCDKTHTCPPCPAPELLGPSVFLFPPKPKDTLMISRTPEVTCVVVDVSHEDPEVKFNWYVDGVEVHNAKTKPREEQYNSTYRVVSVLTVLHQDWLNGKEYKCKVSNKALPAPIEKTISKAKGQPREPQVYTLPPSREEMTKNQVSLTCLVKGFYPSDIAVEWESNGQPENNYKTTPPVLDSDGSFFLYSKLTVDKSRWQQGNVFSCSVMHEALHNHYTQKSLSLSPG light: not shown",binds
4,"Ly816 (bispecific antibody, human IgG1, kappa, Ly387 HC (IgG1 mutated Fc) + Ly387 LC-Ly253 scFv VH-VL) heavy: QVQLQQPGAELVKPGASVKLSCKASGYTFTSYWMHWVKQRPGQGLEWIGMIHPNSGGTNYNEKFKGKGTLTVDKSSSTAYMQLSSLTSDDSAVYYCVTSQATWFAYWGQGTLVTVSAASTKGPSVFPLAPSSKSTSGGTAALGCLVKDYFPEPVTVSWNSGALTSGVHTFPAVLQSSGLYSLSSVVTVPSSSLGTQTYICNVNHKPSNTKVDKKVEPKSCDKTHTCPPCPAPELLGPSVFLFPPKPKDTLMISRTPEVTCVVVDVSHEDPEVKFNWYVDGVEVHNAKTKPREEQYNSTYRVVSVLTVLHQDWLNGKEYKCKVSNKALPAPIEKTISKAKGQPREPQVYTLPPSREEMTKNQVSLTCLVKGFYPSDIAVEWESNGQPENNYKTTPPVLDSDGSFFLYSKLTVDKSRWQQGNVFSCSVMHEALHNHYTQKSLSLSPG light: not shown",binds
5,"Ly622 (bispecific antibody, human IgG1, kappa, Ly591 HC (IgG1 mutated Fc)-TM740 scFv VL-VH + Ly591 LC) heavy: EVQLVESGGGLVQPGGSLRLSCAASGFTFTDYTMDWVRQAPGKGLEWVADVNPNSGGSIYNQRFKGRFTLSVDRSKNTLYLQMNSLRAEDTAVYYCARNLGPSFYFDYWGQGTLVTVSSASTKGPSVFPLAPSSKSTSGGTAALGCLVKDYFPEPVTVSWNSGALTSGVHTFPAVLQSSGLYSLSSVVTVPSSSLGTQTYICNVNHKPSNTKVDKKVEPKSCDKTHTCPPCPAPELLGPSVFLFPPKPKDTLMISRTPEVTCVVVDVSHEDPEVKFNWYVDGVEVHNAKTKPREEQYNSTYRVVSVLTVLHQDWLNGKEYKCKVSNKALPAPIEKTISKAKGQPREPQVYTLPPSREEMTKNQVSLTCLVKGFYPSDIAVEWESNGQPENNYKTTPPVLDSDGSFFLYSKLTVDKSRWQQGNVFSCSVMHEALHNHYTQKSLSLSPGGGGGSGGGGSGGGGSGGGGSDIQMTQSPSSLSASVGDRVTITCKASQNIYIYLNWYQQKPGKAPKLLIYNTNNLQTGVPSRFSGSGSGTDFTLTISSLQPEDFATYYCLQHSSRRTFGGGTKVEIKGGGGSGGGGSGGGGSGGGGSQVQLVESGGGLVQPGGSLKLSCATSGFNFNDYFMNWVRQASGKGLEWVGQIRNKNYNYATYYTESLEGRVTISRDDSKNTAYLQMNSLKTEDTAVYYCTSYYYDGFADYFDYWGQGTTVTVSS light: not shown",binds
6,"Ly623 (bispecific antibody, human IgG1, kappa, Ly591 HC (IgG1 mutated Fc)-TM740 scFv VH-VL + Ly591 LC) heavy: EVQLVESGGGLVQPGGSLRLSCAASGFTFTDYTMDWVRQAPGKGLEWVADVNPNSGGSIYNQRFKGRFTLSVDRSKNTLYLQMNSLRAEDTAVYYCARNLGPSFYFDYWGQGTLVTVSSASTKGPSVFPLAPSSKSTSGGTAALGCLVKDYFPEPVTVSWNSGALTSGVHTFPAVLQSSGLYSLSSVVTVPSSSLGTQTYICNVNHKPSNTKVDKKVEPKSCDKTHTCPPCPAPELLGPSVFLFPPKPKDTLMISRTPEVTCVVVDVSHEDPEVKFNWYVDGVEVHNAKTKPREEQYNSTYRVVSVLTVLHQDWLNGKEYKCKVSNKALPAPIEKTISKAKGQPREPQVYTLPPSREEMTKNQVSLTCLVKGFYPSDIAVEWESNGQPENNYKTTPPVLDSDGSFFLYSKLTVDKSRWQQGNVFSCSVMHEALHNHYTQKSLSLSPGGGGGSGGGGSGGGGSGGGGSQVQLVESGGGLVQPGGSLKLSCATSGFNFNDYFMNWVRQASGKGLEWVGQIRNKNYNYATYYTESLEGRVTISRDDSKNTAYLQMNSLKTEDTAVYYCTSYYYDGFADYFDYWGQGTTVTVSSGGGGSGGGGSGGGGSGGGGSDIQMTQSPSSLSASVGDRVTITCKASQNIYIYLNWYQQKPGKAPKLLIYNTNNLQTGVPSRFSGSGSGTDFTLTISSLQPEDFATYYCLQHSSRRTFGGGTKVEIK light: not shown",binds
7,"Ly624 (bispecific antibody, human IgG1, kappa, Ly591 HC (IgG1 mutated Fc)-TM559 (printed TM599) scFv VL-VH + Ly591 LC) heavy: EVQLVESGGGLVQPGGSLRLSCAASGFTFTDYTMDWVRQAPGKGLEWVADVNPNSGGSIYNQRFKGRFTLSVDRSKNTLYLQMNSLRAEDTAVYYCARNLGPSFYFDYWGQGTLVTVSSASTKGPSVFPLAPSSKSTSGGTAALGCLVKDYFPEPVTVSWNSGALTSGVHTFPAVLQSSGLYSLSSVVTVPSSSLGTQTYICNVNHKPSNTKVDKKVEPKSCDKTHTCPPCPAPELLGPSVFLFPPKPKDTLMISRTPEVTCVVVDVSHEDPEVKFNWYVDGVEVHNAKTKPREEQYNSTYRVVSVLTVLHQDWLNGKEYKCKVSNKALPAPIEKTISKAKGQPREPQVYTLPPSREEMTKNQVSLTCLVKGFYPSDIAVEWESNGQPENNYKTTPPVLDSDGSFFLYSKLTVDKSRWQQGNVFSCSVMHEALHNHYTQKSLSLSPGGGGGSGGGGSGGGGSGGGGSDIQMTQSPSSLSASVGDRVTITCLASEDISNDLAWYQQKPGKAPKLLIYFVDRLLDGVPSRFSGSGSGTDFTLTISSLQPEDFATYYCQQSYKYPPTFGQGTKLEIKGGGGSGGGGSGGGGSGGGGSEVQLVESGGGLVQPGGSLRLSCAASGFTFTNYGLHWVRQAPGKGLEWVSSISPSGGVTYYRDSVKGRFTISRDNSKNTLYLQMNSLRAEDTAVYYCAKPFLGWGGANWIAHWGQGTLVTVSS light: not shown",binds
8,"Ly625 (bispecific antibody, human IgG1, kappa, Ly591 HC (IgG1 mutated Fc)-TM559 (printed TM599) scFv VH-VL + Ly591 LC) heavy: EVQLVESGGGLVQPGGSLRLSCAASGFTFTDYTMDWVRQAPGKGLEWVADVNPNSGGSIYNQRFKGRFTLSVDRSKNTLYLQMNSLRAEDTAVYYCARNLGPSFYFDYWGQGTLVTVSSASTKGPSVFPLAPSSKSTSGGTAALGCLVKDYFPEPVTVSWNSGALTSGVHTFPAVLQSSGLYSLSSVVTVPSSSLGTQTYICNVNHKPSNTKVDKKVEPKSCDKTHTCPPCPAPELLGPSVFLFPPKPKDTLMISRTPEVTCVVVDVSHEDPEVKFNWYVDGVEVHNAKTKPREEQYNSTYRVVSVLTVLHQDWLNGKEYKCKVSNKALPAPIEKTISKAKGQPREPQVYTLPPSREEMTKNQVSLTCLVKGFYPSDIAVEWESNGQPENNYKTTPPVLDSDGSFFLYSKLTVDKSRWQQGNVFSCSVMHEALHNHYTQKSLSLSPGGGGGSGGGGSGGGGSGGGGSEVQLVESGGGLVQPGGSLRLSCAASGFTFTNYGLHWVRQAPGKGLEWVSSISPSGGVTYYRDSVKGRFTISRDNSKNTLYLQMNSLRAEDTAVYYCAKPFLGWGGANWIAHWGQGTLVTVSSGGGGSGGGGSGGGGSGGGGSDIQMTQSPSSLSASVGDRVTITCLASEDISNDLAWYQQKPGKAPKLLIYFVDRLLDGVPSRFSGSGSGTDFTLTISSLQPEDFATYYCQQSYKYPPTFGQGTKLEIK light: not shown",binds
